{"source": "paper PMC10397247", "key": {"[1]": {"biological_target": "T1, 4H370-bA", "T1 chain": "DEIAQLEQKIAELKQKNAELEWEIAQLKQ", "assay": "two-hybrid library CCNG1;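 note: natural log of median RNA to DNA barcode read ratio; higher means stronger binding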"}, "[2]": {"biological_target": "T2, 4H3606-bA", "T2 chain": "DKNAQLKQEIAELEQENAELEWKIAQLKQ", "assay": "two-hybrid library CCNG1"}, "[3]": {"biological_target": "T3, 4H2697-bA", "T3 chain": "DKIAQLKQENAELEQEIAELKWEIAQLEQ", "assay": "two-hybrid library CCNG1"}, "[4]": {"biological_target": "T4, 4H3782-bA", "T4 chain": "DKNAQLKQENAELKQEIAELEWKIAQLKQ", "assay": "two-hybrid library CCNG1"}, "[5]": {"biological_target": "T5, 4H72-bA", "T5 chain": "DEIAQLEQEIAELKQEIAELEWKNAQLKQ", "assay": "two-hybrid library CCNG1"}, "[6]": {"biological_target": "T6, 4H4001-bA", "T6 chain": "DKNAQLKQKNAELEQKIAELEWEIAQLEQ", "assay": "two-hybrid library CCNG1"}, "[7]": {"biological_target": "T7, 4H3189-bA", "T7 chain": "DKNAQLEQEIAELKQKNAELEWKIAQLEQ", "assay": "two-hybrid library CCNG1"}, "[8]": {"biological_target": "T8, 4H687-bA", "T8 chain": "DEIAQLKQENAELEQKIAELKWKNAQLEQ", "assay": "two-hybrid library CCNG1"}, "[9]": {"biological_target": "T9, 4H967-bA", "T9 chain": "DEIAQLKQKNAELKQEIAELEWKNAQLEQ", "assay": "two-hybrid library CCNG1"}, "[10]": {"biological_target": "T10, 4H607-bA", "T10 chain": "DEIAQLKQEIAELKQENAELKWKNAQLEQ", "assay": "two-hybrid library CCNG1"}, "[11]": {"biological_target": "T11, 4H953-bA", "T11 chain": "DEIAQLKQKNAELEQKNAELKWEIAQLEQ", "assay": "two-hybrid library CCNG1"}, "[12]": {"biological_target": "T12, 4H3843-bA", "T12 chain": "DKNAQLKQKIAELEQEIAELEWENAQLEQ", "assay": "two-hybrid library CCNG1"}, "[13]": {"biological_target": "T13, 4H2667-bA", "T13 chain": "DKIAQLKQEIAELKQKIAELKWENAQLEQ", "assay": "two-hybrid library CCNG1"}, "[14]": {"biological_target": "T14, 4H797-bA", "T14 chain": "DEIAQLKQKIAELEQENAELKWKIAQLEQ", "assay": "two-hybrid library CCNG1"}, "[15]": {"biological_target": "T15, 4H2610-bA", "T15 chain": "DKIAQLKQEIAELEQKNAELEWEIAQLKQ", "assay": "two-hybrid library CCNG1"}, "[16]": {"biological_target": "T16, 4H462-bA", "T16 chain": "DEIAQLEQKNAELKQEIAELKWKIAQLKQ", "assay": "two-hybrid library CCNG1"}, "[17]": {"biological_target": "T17, 4H331-bA", "T17 chain": "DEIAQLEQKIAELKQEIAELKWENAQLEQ", "assay": "two-hybrid library CCNG1"}, "[18]": {"biological_target": "T18, 4H568-bA", "T18 chain": "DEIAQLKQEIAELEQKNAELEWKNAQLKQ", "assay": "two-hybrid library CCNG1"}, "[19]": {"biological_target": "T19, 4H918-bA", "T19 chain": "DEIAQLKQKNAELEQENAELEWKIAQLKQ", "assay": "two-hybrid library CCNG1"}, "[20]": {"biological_target": "T20, 4H883-bA", "T20 chain": "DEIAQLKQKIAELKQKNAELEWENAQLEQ", "assay": "two-hybrid library CCNG1"}, "[21]": {"biological_target": "T21, Q7-AA", "T21 chain": "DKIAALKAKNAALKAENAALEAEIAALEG", "assay": "two-hybrid library CCmax"}, "[22]": {"biological_target": "T22, Q8-AA", "T22 chain": "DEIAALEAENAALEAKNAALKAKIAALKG", "assay": "two-hybrid library CCmax", "details": "mean of both orientations"}, "[23]": {"biological_target": "T23, O8-bS", "T23 chain": "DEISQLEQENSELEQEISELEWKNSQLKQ", "assay": "two-hybrid library CCNG1"}, "[24]": {"biological_target": "T24, O2-bS", "T24 chain": "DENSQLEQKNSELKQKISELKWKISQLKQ", "assay": "two-hybrid library CCNG1"}, "[25]": {"biological_target": "T25, O4-bS", "T25 chain": "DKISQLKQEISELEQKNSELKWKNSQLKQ", "assay": "two-hybrid library CCNG1"}, "[26]": {"biological_target": "T26, O6-bS", "T26 chain": "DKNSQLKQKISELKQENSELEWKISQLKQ", "assay": "two-hybrid library CCNG1"}, "[27]": {"biological_target": "T27, O16-bS", "T27 chain": "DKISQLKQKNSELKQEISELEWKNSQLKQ", "assay": "two-hybrid library CCNG1"}, "[28]": {"biological_target": "T28, O5-bS", "T28 chain": "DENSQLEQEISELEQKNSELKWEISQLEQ", "assay": "two-hybrid library CCNG1"}, "[29]": {"biological_target": "T29, O3-bS", "T29 chain": "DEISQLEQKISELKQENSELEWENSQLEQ", "assay": "two-hybrid library CCNG1"}, "[30]": {"biological_target": "T30, O15-bS", "T30 chain": "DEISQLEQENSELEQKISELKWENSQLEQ", "assay": "two-hybrid library CCNG1"}, "[31]": {"biological_target": "T31, O7-bS", "T31 chain": "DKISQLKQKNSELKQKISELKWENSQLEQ", "assay": "two-hybrid library CCNG1"}, "[32]": {"biological_target": "T32, O9-bS", "T32 chain": "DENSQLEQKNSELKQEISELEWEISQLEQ", "assay": "two-hybrid library CCNG1"}}, "data": [{"binder": "DKIAQLKQEIAELEQKNAELEWEIAQLKQ", "note": "[4H2610-bA]", "values": [{"measurement": "interaction score", "setting": "[1]", "result": -1.17}, {"measurement": "interaction score", "setting": "[2]", "result": 0.322}, {"measurement": "interaction score", "setting": "[3]", "result": 0.713}, {"measurement": "interaction score", "setting": "[4]", "result": -0.515}, {"measurement": "interaction score", "setting": "[5]", "result": -0.563}, {"measurement": "interaction score", "setting": "[6]", "result": 0.0746}, {"measurement": "interaction score", "setting": "[7]", "result": -0.366}, {"measurement": "interaction score", "setting": "[8]", "result": -0.571}, {"measurement": "interaction score", "setting": "[9]", "result": -1.02}, {"measurement": "interaction score", "setting": "[10]", "result": -1.15}, {"measurement": "interaction score", "setting": "[11]", "result": 0.322}, {"measurement": "interaction score", "setting": "[12]", "result": 0.444}, {"measurement": "interaction score", "setting": "[13]", "result": 0.718}, {"measurement": "interaction score", "setting": "[14]", "result": -0.486}, {"measurement": "interaction score", "setting": "[15]", "result": -0.2}, {"measurement": "interaction score", "setting": "[16]", "result": 1.76}, {"measurement": "interaction score", "setting": "[17]", "result": -0.211}, {"measurement": "interaction score", "setting": "[18]", "result": -0.602}, {"measurement": "interaction score", "setting": "[19]", "result": 1.13}, {"measurement": "interaction score", "setting": "[20]", "result": 0.538}]}, {"binder": "DKIAALKAKNAALKAENAALEAEIAALEG", "note": "[Q7-AA]", "values": [{"measurement": "interaction score", "setting": "[21]", "result": -1.59}, {"measurement": "interaction score", "setting": "[22]", "result": 2.38}]}, {"binder": "DEISQLEQENSELEQKISELKWENSQLEQ", "note": "[O15-bS]", "values": [{"measurement": "interaction score", "setting": "[23]", "result": -1.05}, {"measurement": "interaction score", "setting": "[24]", "result": -0.919}, {"measurement": "interaction score", "setting": "[25]", "result": -0.754}, {"measurement": "interaction score", "setting": "[26]", "result": -0.0139}, {"measurement": "interaction score", "setting": "[27]", "result": 1.93}, {"measurement": "interaction score", "setting": "[28]", "result": -1.13}, {"measurement": "interaction score", "setting": "[29]", "result": -3.1}, {"measurement": "interaction score", "setting": "[30]", "result": -0.724}, {"measurement": "interaction score", "setting": "[31]", "result": -0.978}, {"measurement": "interaction score", "setting": "[32]", "result": -0.877}]}]}
